From paper PMC6504924 (2019)
Each block holds one binder with its values, some of them ahead of it.

What was measured:
[1] = target: T1, NanoLuc:VEGFR2 fusion on cells (UniProt P35968 20-1356); assay: competition with CBT-labeled VEGF165a
[2] = target: T1, NanoLuc:VEGFR2 fusion on cells; assay: competition with CBT-labeled VEGF165a; remark: listed apart in the source
[3] = target: T1, NanoLuc:VEGFR2 fusion on cells
[4] = target: T2, NanoLuc:EGFR fusion on cells (UniProt P00533 25-1210)
[5] = target: T2, NanoLuc:EGFR fusion on cells; remark: listed apart in the source
[6] = target: T2, NanoLuc:EGFR fusion on cells; assay: competition with CBT-labeled EGF
[7] = target: T2, NanoLuc:EGFR fusion on cells; assay: competition with CBT-labeled EGF; remark: listed apart in the source
[8] = target: T3, NanoLuc:PDGFRβ fusion on cells (UniProt P09619 33-1106)
T3 sequence (P09619 33-1106): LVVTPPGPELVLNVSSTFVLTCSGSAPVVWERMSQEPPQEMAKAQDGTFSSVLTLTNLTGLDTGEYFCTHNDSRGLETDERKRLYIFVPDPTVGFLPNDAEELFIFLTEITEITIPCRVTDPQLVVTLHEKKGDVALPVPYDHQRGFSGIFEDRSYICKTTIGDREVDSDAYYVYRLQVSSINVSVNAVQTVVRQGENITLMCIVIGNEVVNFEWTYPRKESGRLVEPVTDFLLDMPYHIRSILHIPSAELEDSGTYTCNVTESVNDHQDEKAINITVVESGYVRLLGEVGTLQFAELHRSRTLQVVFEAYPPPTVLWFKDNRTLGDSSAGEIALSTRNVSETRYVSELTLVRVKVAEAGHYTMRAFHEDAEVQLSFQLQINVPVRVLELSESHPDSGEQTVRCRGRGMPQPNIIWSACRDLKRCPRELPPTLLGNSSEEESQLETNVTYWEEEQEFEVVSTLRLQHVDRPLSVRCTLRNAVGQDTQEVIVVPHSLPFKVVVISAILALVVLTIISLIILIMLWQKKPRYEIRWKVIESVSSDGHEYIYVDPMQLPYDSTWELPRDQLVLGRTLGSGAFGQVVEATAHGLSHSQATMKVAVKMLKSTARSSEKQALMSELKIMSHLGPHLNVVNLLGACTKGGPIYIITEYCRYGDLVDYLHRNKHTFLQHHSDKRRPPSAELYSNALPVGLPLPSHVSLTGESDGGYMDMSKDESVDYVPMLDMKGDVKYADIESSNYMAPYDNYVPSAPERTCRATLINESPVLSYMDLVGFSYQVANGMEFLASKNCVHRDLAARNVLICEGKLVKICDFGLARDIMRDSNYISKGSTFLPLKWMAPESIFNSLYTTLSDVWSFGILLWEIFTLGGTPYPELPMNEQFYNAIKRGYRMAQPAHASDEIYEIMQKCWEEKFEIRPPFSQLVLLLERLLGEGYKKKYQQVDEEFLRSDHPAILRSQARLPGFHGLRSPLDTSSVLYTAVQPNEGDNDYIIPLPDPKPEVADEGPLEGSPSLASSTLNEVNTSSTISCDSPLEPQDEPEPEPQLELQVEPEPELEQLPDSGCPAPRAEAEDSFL

[9] = target: T3, NanoLuc:PDGFRβ fusion on cells; remark: listed apart in the source
[10] = target: T3, NanoLuc:PDGFRβ fusion on cells; assay: competition with CBT-labeled PDGF-BB
[11] = target: T3, NanoLuc:PDGFRβ fusion on cells; assay: competition with CBT-labeled PDGF-BB; remark: listed apart in the source

T1 sequence (P35968 20-1356): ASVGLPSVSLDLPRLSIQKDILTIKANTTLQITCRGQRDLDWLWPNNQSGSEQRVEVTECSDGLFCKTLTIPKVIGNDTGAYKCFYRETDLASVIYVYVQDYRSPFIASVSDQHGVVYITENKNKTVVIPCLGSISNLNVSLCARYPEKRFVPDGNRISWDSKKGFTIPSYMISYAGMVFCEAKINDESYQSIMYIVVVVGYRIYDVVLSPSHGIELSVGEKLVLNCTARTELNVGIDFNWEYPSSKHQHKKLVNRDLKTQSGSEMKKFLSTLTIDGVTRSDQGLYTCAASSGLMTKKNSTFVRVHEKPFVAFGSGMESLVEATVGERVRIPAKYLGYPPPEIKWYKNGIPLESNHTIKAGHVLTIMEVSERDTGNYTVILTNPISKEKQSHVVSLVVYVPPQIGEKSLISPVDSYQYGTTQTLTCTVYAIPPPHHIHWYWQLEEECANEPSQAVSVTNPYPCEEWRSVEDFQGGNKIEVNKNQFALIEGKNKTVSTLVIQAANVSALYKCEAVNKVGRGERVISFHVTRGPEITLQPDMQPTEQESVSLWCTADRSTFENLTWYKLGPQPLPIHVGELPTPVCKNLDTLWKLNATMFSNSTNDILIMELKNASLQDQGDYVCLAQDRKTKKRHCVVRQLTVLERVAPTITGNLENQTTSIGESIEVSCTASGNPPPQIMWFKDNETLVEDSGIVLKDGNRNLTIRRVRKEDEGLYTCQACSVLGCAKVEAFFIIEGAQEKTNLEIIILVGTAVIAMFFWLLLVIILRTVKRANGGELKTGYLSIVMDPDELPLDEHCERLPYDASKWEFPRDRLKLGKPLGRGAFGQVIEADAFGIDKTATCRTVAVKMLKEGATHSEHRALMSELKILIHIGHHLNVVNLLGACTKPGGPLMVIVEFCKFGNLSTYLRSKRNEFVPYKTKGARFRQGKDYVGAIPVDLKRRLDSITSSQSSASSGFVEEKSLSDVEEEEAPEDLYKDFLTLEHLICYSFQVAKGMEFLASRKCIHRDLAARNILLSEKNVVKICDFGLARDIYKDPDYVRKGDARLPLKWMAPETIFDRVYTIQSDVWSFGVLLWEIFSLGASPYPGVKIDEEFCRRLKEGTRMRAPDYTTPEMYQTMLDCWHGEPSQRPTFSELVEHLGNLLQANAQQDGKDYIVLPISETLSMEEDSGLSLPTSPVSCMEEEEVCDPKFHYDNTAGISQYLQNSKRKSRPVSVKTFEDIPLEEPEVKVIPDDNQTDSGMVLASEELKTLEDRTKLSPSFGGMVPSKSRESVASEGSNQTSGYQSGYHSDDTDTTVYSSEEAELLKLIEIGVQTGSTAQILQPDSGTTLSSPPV

IC50 [1]: 0.12 nM
Ki [2]: 0.047 nM
B1: unlabeled VEGF165a homodimer purified in the same manner (with CDN N-terminal appendage) (ligand)
chain: CDNAPMAEGGGQNHHEVVKFMDVYQRSYCHPIETLVDIFQEYPDEIEYIFKPSCVPLMRCGGCCNDEGLECVPTEESNITMQIMRIKPHQGQHIGEMSFLQHNKCECRPKKDRARQENPCGPCSERRKHLFVQDPQTCKCSCKNTDSRCKARQLELNERTCRCDKPRR
modifications: disulfide-linked homodimer; unlabeled; mature VEGF165 limits by convention (191-aa AUG-initiated isoform precursor, signal 1-26)

Kd [3]: 0.049 nM
B2: CBT-labeled VEGF165a homodimer (vascular endothelial growth factor isoform VEGF165a labeled with DY605-PEG-CBT on the N-terminal cysteine) (ligand)
chain: CDNAPMAEGGGQNHHEVVKFMDVYQRSYCHPIETLVDIFQEYPDEIEYIFKPSCVPLMRCGGCCNDEGLECVPTEESNITMQIMRIKPHQGQHIGEMSFLQHNKCECRPKKDRARQENPCGPCSERRKHLFVQDPQTCKCSCKNTDSRCKARQLELNERTCRCDKPRR
modifications: DY605-PEG-CBT on the N-terminal cysteine (>=95% efficiency)

Kd [4]: 0.16 nM
EC50 [5]: 0.13 nM
B3: CBT-labeled EGF (epidermal growth factor labeled with DY605-PEG-CBT on the N-terminal cysteine) (ligand)
chain: CDNNSDSECPLSHDGYCLHDGVCMYIEALDKYACNCVVGYIGERCQYRDLKWWELR
modifications: DY605-PEG-CBT on the N-terminal cysteine (>=95% efficiency)

EC50 [5]: 0.16 nM
B4: EGF labeled with 2-fold molar excess of DY605-NHS-ester (ligand)
chain: CDNNSDSECPLSHDGYCLHDGVCMYIEALDKYACNCVVGYIGERCQYRDLKWWELR
modifications: DY605-NHS-ester on multiple lysines and on the N-terminus, heterogeneous (0-2 fluorophores per protein)

EC50 [5]: 0.25 nM
B5: EGF labeled with 5-fold molar excess of DY605-NHS-ester (ligand)
chain: CDNNSDSECPLSHDGYCLHDGVCMYIEALDKYACNCVVGYIGERCQYRDLKWWELR
modifications: DY605-NHS-ester on multiple lysines and on the N-terminus, heterogeneous (0-2 fluorophores per protein)

Ki [6]: 0.15 nM
IC50 [7]: 0.35 nM
B6: unlabeled EGF purified in the same manner (with CDN N-terminal appendage) (ligand)
chain: CDNNSDSECPLSHDGYCLHDGVCMYIEALDKYACNCVVGYIGERCQYRDLKWWELR
modifications: not fully specified

Kd [8]: 0.062 nM
EC50 [9]: 0.068 nM
B7: CBT-labeled PDGF-BB homodimer (platelet-derived growth factor labeled with DY605-PEG-CBT on the N-terminal cysteine) (ligand)
chain: CDNSLGSLTIAEPAMIAECKTRTEVFEISRRLIDRTNANFLVWPPCVEVQRCSGCCNNRNVQCRPTQVQLRPVQVRKIEIVRKKPIFKKATVTLEDHLACKCETVAAARPVT
modifications: DY605-PEG-CBT on the N-terminal cysteine (>=95% efficiency)

IC50 [10]: 0.11 nM
Ki [11]: 0.044 nM
B8: unlabeled PDGF-BB homodimer purified in the same manner (with CDN N-terminal appendage) (ligand)
chain: CDNSLGSLTIAEPAMIAECKTRTEVFEISRRLIDRTNANFLVWPPCVEVQRCSGCCNNRNVQCRPTQVQLRPVQVRKIEIVRKKPIFKKATVTLEDHLACKCETVAAARPVT
